In patent US20160193316A1 (priority 1994, published 2016):

How the values were obtained:
DRB5*0101 (DR2w2β2) = target: T1, DRB5*0101 (DR2w2β2) (Homo sapiens, UniProt P01903+Q30154); format: binding
T1 construct: expressed in transfected cells; host or cells: L416.3 (fibroblasts) or GM3107

DRB1*0802 (DR8w2) = target: T2, DRB1*0802 (DR8w2) (Homo sapiens, UniProt P01903+P01911, A100R/A103L/A169T/F76Y/H45Y/I96F/K41T/L162R/M171V/P40S/Q125H/Q178H/Q39Y/Q99D/R218S/R42G/S66Y/V115G/W38E); assay: biochemical; format: binding
T2 construct: endogenous in cells; host or cells: OLL

DRB4*0101 (DRw53) = target: T3, DRB4*0101 (DRw53) (Homo sapiens, UniProt P01903+P13762, G164S); assay: HLA class II peptide binding assay (pH 5.0); settings: for DRw53 binding data: Table XIXb; for DRw53 binding information: DR3a motif peptides, unit not given, exemplary 15-mer containing the core sequence
T3 construct: expressed in transfected cells; host or cells: L257.6 (fibroblasts)

DRB1*0405 (DR4w15) = target: T4, DRB1*0405 (DR4w15) (Homo sapiens, UniProt P01903+P01911, A100R/A169T/D86S/F76Y/I96L/K127E/L162R/M171V/N62H/P40V/Q125Y/R42H/S133A/S149N/S66Y/V115G/V209L/W38E); assay: HLA class II peptide binding assay; settings: for DR4w15 binding data: Table XIXb; for DR4w15 binding information: unit not given
T4 construct: endogenous in cells; host or cells: KT3

DRB1*1201 (DR5w12) = target: T5, DRB1*1201 (DR5w12) (Homo sapiens, UniProt P01903+P01911, A100R/A169T/D57E/D86V/F55L/H45Y/K41T/L162R/M171V/P40S/Q125H/Q178H/Q39Y/Q99D/R42G/S66L/T262R/V114A/V67L/W38E/Y59H/Y61H/Y89S); assay: HLA class II peptide binding assay; settings: for DR5w12 binding data: Table XIXb; for DR5w12 binding information: DR3a motif peptides, unit not given, exemplary 15-mer containing the core sequence
T5 construct: endogenous in cells; host or cells: Herluf

DRB1*0401 (DR4w4) = target: T6, DRB1*0401 (DR4w4) (Homo sapiens, UniProt P01903+P01911, A100K/A169T/F76Y/I96L/K127E/L162R/M171V/N62H/P40V/Q125Y/R42H/S133A/S149N/S66Y/V115G/V209L/W38E); assay: HLA class II peptide binding assay; settings: for DR4w4 binding data: Table XIXb; for DR4w4 binding information: unit not given
T6 construct: endogenous in cells; host or cells: Preiss

DRB1*0101 (DR1) = target: T7, DRB1*0101 (DR1) (Homo sapiens, UniProt P01903+P01911, A100R/D57E/F55L/F60I/F76Y/I96L/L162R/M171V/P40L/Q125E/R42F/V115G/Y59C); assay: HLA class II peptide binding assay; settings: for DR1 binding data: Table XIXb, Malaria Super Motif Peptides With Binding Data; for DR1 binding information: unit not given
T7 construct: endogenous in cells; host or cells: LG2

HLA-A*0301 = target: T8, HLA-A*0301 (Homo sapiens, UniProt P04439); assay: HLA class I peptide binding assay; settings: Malaria A3 motif peptides, Table XVI; binding value to HLA-A*0301, unit not given
T8 construct: endogenous in cells; host or cells: GM3107

DRB1*1101 (DR5w11) = target: T9, DRB1*1101 (DR5w11) (Homo sapiens, UniProt P01903+P01911, A100R/A169T/A87E/I96F/K41T/L162R/M171V/P40S/Q125H/Q178H/Q39Y/Q99D/R42S/S66Y/T262R/V115G/W38E); assay: biochemical; format: binding
T9 construct: endogenous in cells; host or cells: Sweig

DRB1*0701 (DR7) = target: T10, DRB1*0701 (DR7) (Homo sapiens, UniProt P01903+P01911, A100R/A102G/A103Q/D57E/D86V/E43K/F76Y/K127E/L162R/M171V/P40G/Q125H/Q99D/R33Q/R42Y/R54Q/S133A/S66F/T210M/V115G/Y107V/Y59L/Y89S); assay: biochemical; format: binding
T10 construct: endogenous in cells; host or cells: Pitout

DRB1*1501 (DR2w2β1) = target: T11, DRB1*1501 (DR2w2β1) (Homo sapiens, UniProt P01903+P01911); assay: HLA class II peptide binding assay; settings: for DR2w2β1 binding information: Malaria DR3b motif peptides, unit not given
T11 construct: expressed in transfected cells; host or cells: L466.1 (fibroblasts)

DRB1*0301 (DR3) = target: T12, DRB1*0301 (DR3) (Homo sapiens, UniProt P01903+P01911, A100K/A102G/A103R/A169T/F55Y/I96L/K41T/L162R/M171V/P40S/Q125H/Q178H/Q39Y/R42S/S66N/T106N/T262R/W38E/Y61H); assay: HLA class II peptide binding assay (pH 4.5); settings: for DR3 binding information: unit not given
T12 construct: endogenous in cells; host or cells: MAT

DRB1*1302 (DR6w19) = target: T13, DRB1*1302 (DR6w19) (Homo sapiens, UniProt P01903+P01911, A100E/A169T/K41T/L162R/M171V/P40S/Q125H/Q178H/Q39Y/Q99D/R42S/S66N/T262R/V115G/W38E/Y61H); assay: HLA class II peptide binding assay; settings: Malaria DR3b motif peptides; unit not given
T13 construct: endogenous in cells; host or cells: H0301

DRB1*0901 (DR9) = target: T14, DRB1*0901 (DR9) (Homo sapiens, UniProt P01903+P01911, A100R/A103E/D57H/D86V/F55Y/F60I/F76Y/I96F/K127E/L162R/M171V/P40D/Q125H/Q99R/R33Q/R42F/S133A/S66N/T210M/V115G/W38K/Y107V/Y59G/Y89S); assay: biochemical; format: binding
T14 construct: endogenous in cells; host or cells: HID

[1] = DR3a motif peptides, exemplary 15-mer containing the core sequence

T6 sequence (P01903 26-254 partner, other chains not shown): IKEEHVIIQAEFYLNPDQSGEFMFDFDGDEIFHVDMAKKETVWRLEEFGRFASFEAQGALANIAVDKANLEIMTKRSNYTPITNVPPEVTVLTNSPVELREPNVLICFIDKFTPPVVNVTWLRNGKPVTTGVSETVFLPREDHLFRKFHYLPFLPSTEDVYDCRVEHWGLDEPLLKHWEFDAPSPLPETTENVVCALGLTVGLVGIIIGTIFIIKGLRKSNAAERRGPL
T7 sequence (P01903 26-254 partner, other chains not shown): as above
T9 sequence (P01903 26-254, other chains not shown): as the sequence (P01903 26-254 partner, other chains not shown) above
T13 sequence (P01903 26-254, other chains not shown): as the sequence (P01903 26-254 partner, other chains not shown) above

| Sequence | DR2w2β2 binding data (DRB5*0101 (DR2w2β2)) | DR8w2 binding data (DRB1*0802 (DR8w2)) | DRw53 binding data (DRB4*0101 (DRw53)) | DR4w15 binding data (DRB1*0405 (DR4w15)) | DR5w12 binding data (DRB1*1201 (DR5w12)) | DR4w4 binding data (DRB1*0401 (DR4w4)) | DR1 binding data (DRB1*0101 (DR1)) | DR5w11 binding data (DRB1*1101 (DR5w11)) | DR7 binding data (DRB1*0701 (DR7)) | DR2w2β2 binding information (DRB5*0101 (DR2w2β2)) | DR8w2 binding information (DRB1*0802 (DR8w2)) | DR5w11 binding information (DRB1*1101 (DR5w11)) | DR7 binding information (DRB1*0701 (DR7)) | other results |
| --- | --- | --- | --- | --- | --- | --- | --- | --- | --- | --- | --- | --- | --- | --- |
| IAGGLALLA | 0.0013 | 0.0004 | -0.0005 | 0.0014 | 0.0007 | 0.0014 | 0.0160 | -0.0002 | -0.0003 |  |  |  |  | A*0301 (binding information) (HLA-A*0301): 0.0002 |
| IKNSEKDEI |  |  |  |  |  |  |  |  |  | -0.0160 | -0.0007 | -0.0003 | -0.0011 | DR4w15 binding information (DRB1*0405 (DR4w15); Malaria DR3b motif peptides): -0.0010; DR2w2β1 binding information (DRB1*1501 (DR2w2β1)): -0.0021; DR3 binding information (DRB1*0301 (DR3); Malaria DR3b motif peptides): -0.0017; DR4w4 binding information (DRB1*0401 (DR4w4); Malaria DR3b motif peptides): 0.0030; DR1 binding information (DRB1*0101 (DR1); Malaria DR3b motif peptides): 0.0002 |
| INRENANQL |  |  |  |  |  |  |  |  |  | 0.0015 | -0.0003 | -0.0004 | -0.0003 | DRw53 binding information (DRB4*0101 (DRw53)): 0.0096; DR4w15 binding information (DRB1*0405 (DR4w15); [1]): 0.0010; DR5w12 binding information (DRB1*1201 (DR5w12)): 0.0001; DR3 binding information (DRB1*0301 (DR3); [1]): 0.0092; DR4w4 binding information (DRB1*0401 (DR4w4); [1]): 0.0011; DR1 binding information (DRB1*0101 (DR1); [1]): 0.0770 |
| IQDSLKESR |  |  |  |  |  |  |  |  |  | -0.0018 | 0.0012 | -0.0006 | -0.0014 | DR2w2β1 binding information (DRB1*1501 (DR2w2β1)): 0.0040; DR3 binding information (DRB1*0301 (DR3); Malaria DR3b motif peptides): 0.8400; DR6w19 binding information (DRB1*1302 (DR6w19)): -0.0002; DR1 binding information (DRB1*0101 (DR1); Malaria DR3b motif peptides): -0.0001 |
| IVDELSEDI |  |  |  |  |  |  |  |  |  | -0.0005 | -0.0003 | -0.0002 | -0.0003 | DRw53 binding information (DRB4*0101 (DRw53)): 0.0290; DR4w15 binding information (DRB1*0405 (DR4w15); [1]): 0.0017; DR5w12 binding information (DRB1*1201 (DR5w12)): 0.0001; DR3 binding information (DRB1*0301 (DR3); [1]): -0.0041; DR4w4 binding information (DRB1*0401 (DR4w4); [1]): 0.0027; DR1 binding information (DRB1*0101 (DR1); [1]): 0.0001 |
| LAMKLIQQL | -0.0006 | 0.0400 | 0.0350 | 0.0013 | 0.1300 | 0.0023 | 0.0015 | 0.0002 | 0.0770 |  |  |  |  |  |
| LGNVSTVLL | 0.0013 | 0.0012 |  | 0.0360 | 0.0001 | 0.0065 | 0.0430 | 0.0005 | 0.4300 |  |  |  |  | DR2w2β1 binding data (DRB1*1501 (DR2w2β1); Table XIXb, DR2w2β1): 0.0240; DR3 binding data (DRB1*0301 (DR3); Table XIXb, DR3): 0.0059; DR9 binding data (DRB1*0901 (DR9)): 0.5300 |
| LTDGIPDSI | -0.0006 | -0.0003 | 0.0114 | -0.0014 | 0.0001 | 0.1200 | 0.0001 | -0.0004 | -0.0003 |  |  |  |  |  |
